Laboratory results reported in patent publication US20210070881A1 (DENALI THERAPEUTICS, published 2021).
Where a chain is given by its changes, count along the chain named.

B1: 1D2 (antibody, human IgG1, V domains shown)
VH: EVHVKQSGPELKKPGETVTISCKASGYTFTTYGMTWVRQAPGKDLEWMGWINTHSGVPIYADDFKGRFAFSLETSAGTAYLQINNLKNEDTATYFCTRRGRLGHYFDYWGQGTSVTVSS
VL: DIVMTQSQKFMSTSVGDRVSVTCKASQNVGTNVAWYQQKPGQSPKLLIYWASTRHTGVPDRFTGSGSGTDFTLTISNVQSEDLADYFCQQYSSYPYTFGGGTKLELK
notes: chimeric, human IgG1/kappa; also called Clone 1D2
B2: 3C11 (antibody, human IgG1, V domains shown)
VH: EVQLQQSGADLMKPGASVKLSCKATGYTFTGYWIEWVKQRPGHGLEWIGEIFPGSVSTNYNEKFKGKATFTADTSSNTAYMQLSSLTTEDSAIYYCARSPIYYDYADYWGQGTTLTVSS
VL: DIVLSQSHKFMSTSVGDRVSITCKASQDVGTAVAWYQQKPGQSPKALIYLASNRHTGVPDRFTGSGSGTDFTLTISNVQSEDLAEYFCQQYNSYPYTFGGGTRLEIK
notes: chimeric, human IgG1/kappa; also called Clone 3C11
B3: 2H8.31 (antibody, human IgG1, V domains shown)
VH: EVQLQQSGPELVKPGASVKLSCKASGYTFTNFWIHWLKQRPGQGLEWIGMIDPSDSYTKYNQKFKAKATLTVDTSSSTTYMHLSSLTSEDSAVYYCARSGVAFPYWGQRTLVTVSA
VL: DIQMTQSQKFMSKSVGDRVSVTCKASQNVGSNVAWYQQKSGQSPKSLIYSASHRYSGVPDRFTGSGSGTDFTLTISNVQSEDLADYFCQQYNSYPYTFGGGTRLEIK
notes: human IgG1/kappa; also called 2H8_HC + 2H8_LCvar6
B4: 2H8.37 (antibody, human IgG1, V domains shown)
VH: B3 VH
VL: B3 VL with Q3L, K13T, S31R, K39I, S46P, A84V, D85E, Y86F, R103K
notes: human IgG1/kappa; also called 2H8_HC + 2H8_LCvar7
B5: 2H8.02 (antibody, human IgG1, V domains shown)
VH: EVQLQQPGTELVRPGTSVKLSCKASGYTFTNYWMHWIKQRPGQGLEWIGMIDPSDTYTKFNQNFKGKATLTVDTSSSTAYMQLNSLTSEDSAVYYCARSGVAFPYWGQGTTVTVSS
VL: B3 VL with Q3V, R18T, N28D, S31R
notes: human IgG1/kappa; also called 2H8_HCvar2 + 2H8_LC
B6: 2H8.32 (antibody, human IgG1, V domains shown)
VH: B5 VH
VL: B3 VL
notes: human IgG1/kappa; also called 2H8_HCvar2 + 2H8_LCvar6
B7: 2H8.04 (antibody, human IgG1, V domains shown)
VH: B5 VH with V2I, P7S, I37V, D55A, T56A, K59N, F60Y, S77G, N84S
VL: B3 VL with Q3V, R18T, N28D, S31R
notes: human IgG1/kappa; also called 2H8_HCvar4 + 2H8_LC
B8: 2H8.05 (antibody, human IgG1, V domains shown)
VH: EVQLQQPGAEVVRPGTSVKLSCKASGYTFTNYWMHWVKQRPGQGLEWIGMIDPSDNYTKYNQKLKGKATLTVDTSSSTANMHVNSLTSEDSAVYFCARSGVAFPYWGQGTLVTVSA
VL: B3 VL with Q3V, R18T, N28D, S31R
notes: human IgG1/kappa; also called 2H8_HCvar5 + 2H8_LC
B9: 2H8.35 (antibody, human IgG1, V domains shown)
VH: B8 VH
VL: B3 VL
notes: human IgG1/kappa; also called 2H8_HCvar5 + 2H8_LCvar6
B10: 2H8.41 (antibody, human IgG1, V domains shown)
VH: B8 VH
VL: B3 VL with Q3L, K13T, S31R, K39I, S46P, A84V, D85E, Y86F, R103K
notes: human IgG1/kappa; also called 2H8_HCvar5 + 2H8_LCvar7
B11: 2H8.39 (antibody, human IgG1, V domains shown)
VH: B3 VH with P9A, K13R, A16T, N31S, F32Y, L37V, A66D
VL: B3 VL with Q3L, K13T, S31R, K39I, S46P, A84V, D85E, Y86F, R103K
notes: human IgG1/kappa; also called 2H8_HCvar3 + 2H8_LCvar7
B12: 2H8.42 (antibody, human IgG1, V domains shown)
VH: EVQLQQSGAELVRPGTSVKLSCKASGYTFNNYWMHWVKQRPGQGLEWIGMIDPSDDDIKNNQKFKGKATLTVDTSSSTAYMQLISLTSEDSAVYYCARSGVALPYWGQGTLVTVSA
VL: B3 VL with Q3L, K13T, S31R, K39I, S46P, A84V, D85E, Y86F, R103K
notes: human IgG1/kappa; also called 2H8_HCvar6 + 2H8_LCvar7
B13: hu2H8v29.12 (antibody, V domains shown)
VH: QVQLVQSGAEVKKPGASVKVSCKASGYTFNNFWIHWVRQAPGQGLEWMGMIDPSDSYTKYNQKFKARATLTVDTSTSTVYMELSSLRSEDTAVYYCARSGVAFPYWGQGTLVTVSS
VL: DIQMTQSPSSLSASVGDRVTITCKASQDVGRNVAWYQQKPGKSPKSLIYSASHRYSGVPSRFSGSGSGTDFTLTISSLQPEDFATYFCQQYNSYPYTFGQGTKVEIK
notes: captured via human Fc; also called hu2H8_LC5 + hu2H8_HC6.1
B14: hu2H8v29.13 (antibody, V domains shown)
VH: B13 VH with N30T, F32Y
VL: B13 VL
notes: captured via human Fc; also called hu2H8_LC5 + hu2H8_HC6.2
B15: hu2H8v29.14 (antibody, V domains shown)
VH: B13 VH with N31S, F32Y
VL: B13 VL
notes: captured via human Fc; also called hu2H8_LC5 + hu2H8_HC6.3
B16: hu2H8v29.15 (antibody, V domains shown)
VH: B13 VH with N30T, W33Y
VL: B13 VL
notes: captured via human Fc; also called hu2H8_LC5 + hu2H8_HC6.4
B17: hu2H8v29.16 (antibody, V domains shown)
VH: B13 VH with N30T, M50I
VL: B13 VL
notes: captured via human Fc; also called hu2H8_LC5 + hu2H8_HC6.5
B18: hu2H8v29.17 (antibody, V domains shown)
VH: B13 VH with N30T, D55S
VL: B13 VL
notes: captured via human Fc; also called hu2H8_LC5 + hu2H8_HC6.6
B19: hu2H8v29.18 (antibody, V domains shown)
VH: B13 VH with N30T, D55E
VL: B13 VL
notes: captured via human Fc; also called hu2H8_LC5 + hu2H8_HC6.7
B20: hu2H8v29.19 (antibody, V domains shown)
VH: B13 VH with N30T, D55G
VL: B13 VL
notes: captured via human Fc; also called hu2H8_LC5 + hu2H8_HC6.8
B21: hu2H8v29.20 (antibody, V domains shown)
VH: B13 VH with N30T, S56A
VL: B13 VL
notes: captured via human Fc; also called hu2H8_LC5 + hu2H8_HC6.9
B22: hu2H8v29.21 (antibody, V domains shown)
VH: B13 VH with N30T, F103L
VL: B13 VL
notes: captured via human Fc; also called hu2H8_LC5 + hu2H8_HC6.10
B23: hu2H8v29.22 (antibody, V domains shown)
VH: B13 VH with N30T, F103L, Y105S
VL: B13 VL
notes: captured via human Fc; also called hu2H8_LC5 + hu2H8_HC6.11
B24: hu2H8v29.23 (antibody, V domains shown)
VH: B13 VH with N30T, A102S, F103L
VL: B13 VL
notes: captured via human Fc; also called hu2H8_LC5 + hu2H8_HC6.12
B25: hu2H8v29.24 (antibody, V domains shown)
VH: B13 VH with N30T, V101A, A102S, F103L
VL: B13 VL
notes: captured via human Fc; also called hu2H8_LC5 + hu2H8_HC6.13
B26: hu2H8v29.25 (antibody, V domains shown)
VH: B13 VH with N30T, V101A, F103L
VL: B13 VL
notes: captured via human Fc; also called hu2H8_LC5 + hu2H8_HC6.14
B27: hu2H8v29.26 (antibody, V domains shown)
VH: B13 VH with N30T, V101G, F103L
VL: B13 VL
notes: captured via human Fc; also called hu2H8_LC5 + hu2H8_HC6.15
B28: hu2H8v29.27 (antibody, V domains shown)
VH: B13 VH with N30T, D55S, V101A, A102S, F103L
VL: B13 VL with R54Y, N92Y
notes: captured via human Fc; also called hu2H8_LC5.12 + hu2H8_HC6.16
B29: hu2H8v29.28 (antibody, V domains shown)
VH: B13 VH with N30T, S54D, D55S, V101A, A102S, F103L
VL: B13 VL with R54Y, N92Y
notes: captured via human Fc; also called hu2H8_LC5.12 + hu2H8_HC6.17

Target: T1, recombinant BACE1 (BACE1 extracellular domain, R&D Systems Cat#931-AS) (UniProt P56817 22-457)
T1 construct: extracellular domain; also called BACE1 extracellular domain protein
T1 sequence (P56817 22-457): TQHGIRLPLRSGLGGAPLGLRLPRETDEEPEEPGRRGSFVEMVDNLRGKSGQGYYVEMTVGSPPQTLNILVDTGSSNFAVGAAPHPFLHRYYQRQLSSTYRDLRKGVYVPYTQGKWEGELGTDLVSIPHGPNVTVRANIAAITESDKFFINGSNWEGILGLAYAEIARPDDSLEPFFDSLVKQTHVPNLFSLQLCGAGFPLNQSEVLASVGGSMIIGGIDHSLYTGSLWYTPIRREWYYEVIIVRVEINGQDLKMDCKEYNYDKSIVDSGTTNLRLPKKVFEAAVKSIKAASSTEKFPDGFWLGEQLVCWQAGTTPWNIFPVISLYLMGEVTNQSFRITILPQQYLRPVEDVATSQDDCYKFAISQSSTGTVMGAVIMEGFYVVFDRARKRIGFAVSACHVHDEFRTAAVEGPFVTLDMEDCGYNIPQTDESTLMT
Assay: SPR Biacore T200, IgG captured, BACE1 analyte
Method: The affinity of chimeric IgG antibodies for recombinant BACE1 was determined by surface plasmon resonance using a Biacore™ T200 instrument. Biacore™ Series S CMS sensor chips were immobilized with monoclonal mouse anti-human IgG (Fc) antibody (e.g., using a human antibody capture kit from GE Healthcare). 1 μg/mL of antibody was captured for 1 minute on each flow cell and serial 3-fold dilutions of recombinant BACE1 were injected at a flow rate of 30 μL/min. Each sample was analyzed with a 3-minute association and a 10-minute dissociation. After each injection, the chip was regenerated using 3M MgCl₂. Binding response was corrected by subtracting the RU from a flow cell capturing an irrelevant IgG at similar density. A 1:1 Langmuir model of simultaneous fitting of kₒₙ and koff was used for analysis of kinetics.

Row | Binder | Kd | koff | kon
1 | B1 | 3.1 nM | 0.00024 s⁻¹ | 78000 M⁻¹ s⁻¹
2 | B2 | 61 nM | 0.0013 s⁻¹ | 21000 M⁻¹ s⁻¹

Target: cellular BACE1 in CHOK1-huAPP cells
Assay: cell-based or functional assay

Row | Binder | IC50 | Max. % inhibition
3 | B3 | 33 nM | 94%
4 | B4 | 32 nM | 93%
5 | B5 | 42 nM | 81%
6 | B6 | 61 nM | 86%
7 | B7 | 26 nM | 82%
8 | B8 | 44 nM | 87%
9 | B9 | 41 nM | 85%
10 | B10 | 36 nM | 86%
11 | B11 | 43 nM | 86%
12 | B12 | 53 nM | 97%

Target: T1, recombinant BACE1 (BACE1 extracellular …)
Assay: SPR Biacore

Row | Binder | Kd | koff | kon
13 | B3 | 11.1 nM | 0.000168 s⁻¹ | 15200 M⁻¹ s⁻¹
14 | B4 | 16.4 nM | 0.000331 s⁻¹ | 20200 M⁻¹ s⁻¹
15 | B5 | 13.1 nM | 0.000265 s⁻¹ | 20200 M⁻¹ s⁻¹
16 | B6 | 11.4 nM | 0.000172 s⁻¹ | 15100 M⁻¹ s⁻¹
17 | B7 | 15.6 nM | 0.000362 s⁻¹ | 23300 M⁻¹ s⁻¹
18 | B8 | 13.7 nM | 0.000251 s⁻¹ | 18300 M⁻¹ s⁻¹
19 | B9 | 15.2 nM | 0.000171 s⁻¹ | 11200 M⁻¹ s⁻¹
20 | B10 | 10.7 nM | 0.000197 s⁻¹ | 18500 M⁻¹ s⁻¹
21 | B11 | 13 nM | 0.000217 s⁻¹ | 16600 M⁻¹ s⁻¹
22 | B12 | 11.6 nM | 0.000221 s⁻¹ | 19000 M⁻¹ s⁻¹

Target: T1, recombinant BACE1 (BACE1 extracellular …)
Assay: SPR Biacore 8K, antibody captured, BACE1 analyte
Method: The binding affinities of the affinity matured humanized 2H8 variants for BACE1 were determined by surface plasmon resonance using a Biacore™ 8K instrument. […] The binding was monitored for 300 seconds and then dissociation was monitored for 600+ seconds in HBS-EP+ running buffer (GE Healthcare Life Sciences, BR100669). Binding response was corrected by subtracting the RU from a blank flow cell. A 1:1 Langmuir model of simultaneous fitting of kₒₙ and koff was used for kinetics analysis.

Row | Binder | Kd
23 | B13 | 8.42 nM
24 | B14 | 9.16 nM
25 | B15 | 9.32 nM
26 | B16 | 19.2 nM
27 | B17 | 31.3 nM
28 | B18 | 8.04 nM
29 | B19 | 10.3 nM
30 | B20 | 9.95 nM
31 | B21 | 8.69 nM
32 | B22 | 6.68 nM
33 | B23 | 6 nM
34 | B24 | 7 nM
35 | B25 | 5.73 nM
36 | B26 | 6.08 nM
37 | B27 | 8.52 nM
38 | B28 | 3.4 nM
39 | B29 | 4.8 nM

Target: cellular BACE1 in CHOK1-huAPP cells
Assay: cell-based or functional assay
Remark: another data set of the same source

Row | Binder | % Max Inhibition | Cellular IC50
40 | B1 | 47% | 4 nM
41 | B2 | 56% | 36 nM
